According to the supplement of paper PMC10567573:

B1: INTS3 (parent)
chain: FHPIKETVVEEPVDITPYLDQLDE
B2: KCNAB2 (parent)
chain: SSIIHEIDSILGNKPYSKKDYRS

Variants of: B1
Assay: protein stability index of a GFP-peptide fusion (GPS, HEK-293T) (PSI 1-6); higher = more stable
Details: c terminus: a fixed tail appended
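Further: lentivirally expressed fusions sorted by FACS into six bins by GFP to DsRed ratio, PSI derived from sequencing read proportions per bin multiplied by bin number.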

Variant	protein stability index
Q21Y	2.5
Q21V	4.05
Q21S	2.82
Q21T	3.19
Q21R	2.71
Q21W	2.26
L22A	3.9
L22T	3.38
L22P	3.61
L22N	3.85
L22H	3.5
L22D	3.62
L22M	2.57
L22W	2.73
L22Y	3.16
L22F	3.03
L22G	3.41
L22V	3.41
L22Q	4.11
L22K	3.7
L22R	3.71

Variant	protein stability index
L22C	3.82
L22I	3.83
L22S	3.13
L22E	3.68
E24P	2.63
E24Y	2.47
E24W	1.84
E24I	2.44
E24F	1.93
E24K	2.42
E24H	2.66
E24L	2.85
E24M	2.83
E24V	2.99
E24R	2.33
E24S	2.9
E24T	3.09
E24D	3.75
E24Q	2.7
E24A	2.58
E24C	2.77

Variant	protein stability index
E24G	2.73
E24N	3.17
D23S	2.68
D23G	2.59
D23H	2.66
D23M	2.22
D23R	2.63
D23W	1.8
D23Y	2.18
D23K	2.39
D23F	2.28
D23Q	3.02
D23P	3.02
D23I	2.06
D23C	2.48
D23N	2.8
D23E	3.29
D23L	2.21
D23V	2.3
D23T	3.08
D23A	2.35

Variants of: B2
Assay: as above
Details: c terminus: native

Variant	protein stability index
G12R	2.73
G12F	4.21
G12I	2.62
G12E	3.69
G12P	3.86
G12M	3.77
G12A	2.61
G12W	2.6
G12D	3.81
G12S	3.51
G12K	3.38
G12T	3.24
G12V	2.76
G12N	3.18
H5W	2.2
H5D	3.7
H5T	3.6
H5R	3.64
H5C	2.42
H5M	1.76
H5L	2.21
H5G	3.07
H5Q	3.02
H5F	2.21
H5V	2.38

Variant	protein stability index
I7T	4.7
I7C	4.15
I7N	4.63
I7D	4.4
I7S	4.38
I7Q	4.42
I7P	4.47
I7A	4.65
I7M	2.75
I7L	2.86
I7Y	4.53
I7E	4.51
K18A	2.33
K18L	2.12
K18Q	2.76
K18E	3.16
K18V	2.59
K18F	2.32
K18H	2.48
K18M	1.27
K18T	2.56
K18S	2.69
K18P	2.03
K18D	2.7
K18R	2.94

Variant	protein stability index
R22Y	3.24
R22A	4.01
R22Q	4.29
R22V	3.12
R22H	4.39
R22C	3.26
R22L	4.01
R22W	2.57
R22P	4.29
R22F	3.18
R22N	4.55
R22G	3.98
R22S	4.01
R22K	4.37
R22D	4.42
R22I	3.67
R22M	3.29
Y21V	3.27
Y21C	3.13
Y21W	3.28
Y21G	3.37
Y21Q	2.2
Y21H	3.15
Y21F	2.52
Y21P	5.12

Variant	protein stability index
Y21A	3.77
Y21D	4.07
Y21I	2.47
K14I	2.63
K14M	2.9
K14Q	3.1
K14E	3.24
K14F	1.99
K14Y	2.32
K14D	3.31
K14H	2.32
K14T	2.89
D8K	2.07
D8G	2.41
D8N	2.69
D8T	2.25
D8R	2.84
D8V	2.57
D8A	2.06
D8C	1.59
E6A	1.72
E6I	2.01
E6S	2.66
E6V	3.15
E6P	2.9

Variant	protein stability index
E6W	3.44
E6Y	1.69
E6D	2.97
E6G	2.82
E6H	2.31
E6T	2.23
E6C	1.94
S17T	2.7
S17A	3.74
S17Y	2.8
S17F	3.2
S17R	3.23
S17Q	3.76
S17C	3.79
S17I	3.54
S17L	2.93
S17G	3.15
S17N	2.99
I4D	4.28
I4Q	4.26
I4T	3.95
I4R	2.94
I4F	1.29
I4M	2.59
I4L	2.56

Variant	protein stability index
I4C	3.6
I4V	2.46
I4P	4.63
I4S	3.25
I4G	2.69
I10C	3.79
I10L	3.12
I10M	3.32
I10R	4.3
I10F	2.32
I10Y	3
I10N	4.38
I10Q	4.47
I10D	4.05
I10P	4.38
I10S	3.68
I10K	4.87
I10W	1.96
S2N	3.43
S2C	2.22
S2F	2.4
S2E	4.02
S2K	1.66
S2V	1.89
S2Y	2.24

Variant	protein stability index
S2Q	3.07
S2W	2.66
S2R	3.13
S2G	3.2
S2A	2.89
S23L	3.9
S23F	4.46
S23T	4.17
S23G	2.56
S23M	3.96
S23D	4.12
S23N	4.49
S23A	3.37
Y16N	3.34
Y16K	2.48
Y16A	2.85
Y16H	3.27
Y16R	2.22
Y16E	4.12
Y16L	3.22
Y16M	2.71
Y16V	3.26
Y16I	3.8
Y16P	3.6
D20W	1.92

Variant	protein stability index
D20T	3.55
D20G	3.07
D20M	2.96
D20C	2.01
D20A	2.14
D20P	4.21
D20E	2.89
D20K	2.47
D20S	2.78
P15I	3.18
P15R	2.98
P15V	2.71
P15H	2.63
P15G	3.36
P15C	3.14
P15A	3.54
P15M	3.28
P15N	3.39
P15Q	2.8
P15Y	2.63
P15F	2.32
N13I	2.51
N13W	2.38
N13T	2.97
N13M	2.56

Variant	protein stability index
N13F	2.68
N13G	2.61
N13P	2.54
N13V	2.59
N13E	2.82
N13L	2.47
N13A	2.14
S1D	3.67
S1E	2.82
S1M	1.8
S1F	2.06
S1I	2.67
S1A	2.43
S1V	2.34
S1L	2.13
S1H	2.46
S1G	3.04
S1T	2.6
S1N	3.97
S1R	2.78
S1P	3.28
S1C	2.47
L11V	3.69
L11F	3.07
L11G	4.19

Variant	protein stability index
L11S	4.36
L11H	4.46
L11W	2.63
L11D	4.72
L11I	3.42
L11C	3.86
L11T	4.27
L11E	4.69
L11Y	3.4
L11Q	4.91
L11P	4.19
L11N	4
L11A	3.9
S9R	2.58
S9F	1.75
S9V	2.53
S9M	2.2
S9I	2.08
S9N	2.94
S9H	2.8
S9Q	3.19
S9A	2.48
S9P	3.81
S9G	3.66
I3T	4.58

Variant	protein stability index
I3K	2.78
I3W	1.72
I3C	3.85
I3G	4.46
I3Y	3.17
I3N	4.2
I3M	3.17
I3P	3.96
I3E	4.16
I3S	4.63
I3L	2.9
K19F	2.66
K19I	3.3
K19E	4.45
K19C	3.2
K19N	4.06
K19Q	3.87
K19M	3.75
K19S	3.92
K19H	3.9
K19T	4.16
